# Test results published in patent publication US20180064827.
# Legend:
# Experiment in all cases: cell_activity
# ZFN 60461 (synthetic) = settings: pair with 64971, Hepa1-6
# ZFN 64982 (synthetic) = settings: pair with 64971, Hepa1-6; finger linker variant 64972 gave 89.0
# ZFN 64983 (synthetic) = settings: pair with 64971, Hepa1-6
# ZFN 69922 (synthetic) = settings: pair with 69916, 0.1 ug mRNA, MK2
# ZFN 69925 (synthetic) = settings: pair with 69916, 0.1 ug mRNA, MK2
# ZFN 69926 (synthetic) = settings: pair with 69915, 0.1 ug mRNA, MK2
# ZFN 69928 (synthetic) = settings: pair with 69916, 0.1 ug mRNA, MK2
# ZFN 69929 (synthetic) = settings: pair with 69920, 0.1 ug mRNA, MK2
# ZFN 60334 (synthetic) = settings: pair with 60137, K562
# ZFN 25264 (synthetic) = settings: pair with 25277, K562, 200 ng
# ZFN 69903 (synthetic) = settings: pair with 69912, 0.1 ug mRNA, MK2
# ZFN 69908 (synthetic) = settings: pair with 69912, 0.1 ug mRNA, MK2
# ZFN 69909 (synthetic) = settings: pair with 69912, 0.1 ug mRNA, MK2
# ZFN 69915 (synthetic) = settings: pair with 69922, 0.1 ug mRNA, MK2
# ZFN 69916 (synthetic) = settings: pair with 69922, 0.1 ug mRNA, MK2
# ZFN 69918 (synthetic) = settings: pair with 69922, 0.1 ug mRNA, MK2
# ZFN 69919 (synthetic) = settings: pair with 69922, 0.1 ug mRNA, MK2
# ZFN 69920 (synthetic) = settings: pair with 69922, 0.1 ug mRNA, MK2
# ZFN 60460 (synthetic) = settings: pair with 64982, Hepa1-6
# ZFN 64969 (synthetic) = settings: pair with 64982, Hepa1-6
# ZFN 64971 (synthetic) = settings: pair with 64982, Hepa1-6
# ZFN 69912 (synthetic) = settings: pair with 69909, 0.1 ug mRNA, MK2
# ZFN 69913 (synthetic) = settings: pair with 69909, 0.1 ug mRNA, MK2
# ZFN 58781 (synthetic) = settings: pair with 65086, Hepa1-6
# ZFN 65094 (synthetic) = settings: pair with 65086, Hepa1-6
# ZFN 65095 (synthetic) = settings: pair with 65086, Hepa1-6
# ZFN 65098 (synthetic) = settings: pair with 65086, Hepa1-6
# ZFN 60045 (synthetic) = settings: pair with 60043, K562
# ZFN 60309 (synthetic) = settings: pair with 60308, K562
# ZFN 64555 (synthetic) = settings: pair with 66075, 5 ug/mL
# ZFN 60393 (synthetic) = settings: pair with 64989, Hepa1-6
# ZFN 65021 (synthetic) = settings: pair with 64989, Hepa1-6
# ZFN 65022 (synthetic) = settings: pair with 64989, Hepa1-6
# ZFN 60422 (synthetic) = settings: pair with 64842, Hepa1-6
# ZFN 64791 (synthetic) = settings: pair with 64842, Hepa1-6
# ZFN 64793 (synthetic) = settings: pair with 64842, Hepa1-6
# ZFN 64802 (synthetic) = settings: pair with 64842, Hepa1-6
# ZFN 64347 (synthetic) = settings: pair with 60751, HepG2, 40 ug/mL
# ZFN 60308 (synthetic) = settings: pair with 60309, K562
# ZFN 60751 (synthetic) = settings: pair with 64347, HepG2, 40 ug/mL
# ZFN 67493 (synthetic) = settings: pair with 60750, HepG2, 40 ug/mL
# ZFN 67495 (synthetic) = settings: pair with 60750, HepG2, 40 ug/mL
# ZFN 60134 (synthetic) = settings: pair with 60133, K562
sequence,measurement,setting,value
GGGGTGGTGACTCACCGGCCACGTGGGC (double strand) [mouse PCSK9 site F right],activity,ZFN 60461 (synthetic),85.8 % indel
same,activity,ZFN 64982 (synthetic),95.9 % indel
same,activity,ZFN 64983 (synthetic),95.2 % indel
GGGGTGGTGACTTACCAGCCACGTGGGC (double strand) [M. mulatta PCSK9 exon 7 right],activity,ZFN 69922 (synthetic),81.4 % indel
same,activity,ZFN 69925 (synthetic),77 % indel
same,activity,ZFN 69926 (synthetic),37 % indel
same,activity,ZFN 69928 (synthetic),69.2 % indel
same,activity,ZFN 69929 (synthetic),43.3 % indel
GGTACCGGGCGGATGAATACCAGCCCCC (double strand) [human PCSK9 60334 site],activity,ZFN 60334 (synthetic),67.9 % indel
GTCGATGGTCAGCACAGCCTTATGCACG (double strand) [SERPINA1 25264 site],activity,ZFN 25264 (synthetic),40.9 % indel
GTGGAGGCTGCCCGGCACCTACGTGGTG (double strand) [M. mulatta PCSK9 exon 2 left],activity,ZFN 69903 (synthetic),33.7 % indel
same,activity,ZFN 69908 (synthetic),42.5 % indel
same,activity,ZFN 69909 (synthetic),58.7 % indel
GTGGGACATCGCAGGCTGCTGCCCACGT (double strand) [M. mulatta PCSK9 exon 7 left],activity,ZFN 69915 (synthetic),78 % indel
same,activity,ZFN 69916 (synthetic),81.4 % indel
same,activity,ZFN 69918 (synthetic),71.2 % indel
same,activity,ZFN 69919 (synthetic),76.1 % indel
same,activity,ZFN 69920 (synthetic),72.1 % indel
GTGGGACCTCACAGGCTGCTGCCCACGT (double strand) [mouse PCSK9 site F left],activity,ZFN 60460 (synthetic),53.8 % indel
same,activity,ZFN 64969 (synthetic),86.1 % indel
same,activity,ZFN 64971 (synthetic),95.9 % indel
GTGGTGCTGAAGGAGGAGACCCACCGCT (double strand) [M. mulatta PCSK9 exon 2 right],activity,ZFN 69912 (synthetic),58.7 % indel
same,activity,ZFN 69913 (synthetic),53.4 % indel
GTGGTGCTGATGGAGGAGACCCAGAGGC (double strand) [mouse PCSK9 site J right],activity,ZFN 58781 (synthetic),62.3 % indel
same,activity,ZFN 65094 (synthetic),77.8 % indel
same,activity,ZFN 65095 (synthetic),76.7 % indel
same,activity,ZFN 65098 (synthetic),77.2 % indel
TACGTGGTGGTGCTGAAGGAGGAGACCC (double strand) [human PCSK9 60045 site],activity,ZFN 60045 (synthetic),65.4 % indel
TATCCCCGGCGGGCAGCCTGGGCCTGCA (double strand) [human PCSK9 60309 site],activity,ZFN 60309 (synthetic),71.8 % indel
TCCCAGCTGATAGATGGGTCTATTGCTT (double strand) [M. mulatta HAO1 right],activity,ZFN 64555 (synthetic),86.9 % indel
TCCTCCTGGGACGGGAGGGCGAGCATCA (double strand) [mouse PCSK9 site G right],activity,ZFN 60393 (synthetic),60.9 % indel
same,activity,ZFN 65021 (synthetic),83.3 % indel
same,activity,ZFN 65022 (synthetic),76.3 % indel
TCGGGAGATTGAGGGCAGGGTCACCATC (double strand) [mouse PCSK9 site A left],activity,ZFN 60422 (synthetic),35 % indel
same,activity,ZFN 64791 (synthetic),41.8 % indel
same,activity,ZFN 64793 (synthetic),44.9 % indel
same,activity,ZFN 64802 (synthetic),43 % indel
TCTTACTGGAAGGCACTTGGCATCTCCC (double strand) [human TTR 64347 site],activity,ZFN 64347 (synthetic),63.5 % indel
TGCAGGCGGCGGGCAGTGCGCTCTGACT (double strand) [human PCSK9 60308 site],activity,ZFN 60308 (synthetic),71.8 % indel
TGCATGCTCATGGAATGGGGAGATGCCA (double strand) [human TTR exon 3 right],activity,ZFN 60751 (synthetic),63.5 % indel
same,activity,ZFN 67493 (synthetic),59.2 % indel
same,activity,ZFN 67495 (synthetic),61.8 % indel
TTACCGGGGGGCTGGTATTCATCCGCCC (double strand) [human PCSK9 60134 site],activity,ZFN 60134 (synthetic),72.6 % indel
